Molecular target: Quinol-dependent nitric oxide reductase from Alcaligenes xylosoxidans (His-tagged AxqNOR-BRIL) (Alcaligenes xylosoxidans)
Assay: cryo-EM structure; single-particle cryoEM, 2.2 Å, refined in C2 symmetry; sample at 3 mg/mL in Tris-HCl buffer pH 7.0, 150 mM NaCl, 0.05% DTM; dimer

stoichiometry N: 2
Substance: Quinol-dependent nitric oxide reductase from Alcaligenes xylosoxidans (His-tagged AxqNOR-BRIL) (enzyme)

Source: article PMC10256718
